Measurements published in patent publication US20240150465A1 (Chugai, published 2024).

T1: recombinant human DLL3 (human, UniProt Q9NYJ7 27-492)
T1 sequence: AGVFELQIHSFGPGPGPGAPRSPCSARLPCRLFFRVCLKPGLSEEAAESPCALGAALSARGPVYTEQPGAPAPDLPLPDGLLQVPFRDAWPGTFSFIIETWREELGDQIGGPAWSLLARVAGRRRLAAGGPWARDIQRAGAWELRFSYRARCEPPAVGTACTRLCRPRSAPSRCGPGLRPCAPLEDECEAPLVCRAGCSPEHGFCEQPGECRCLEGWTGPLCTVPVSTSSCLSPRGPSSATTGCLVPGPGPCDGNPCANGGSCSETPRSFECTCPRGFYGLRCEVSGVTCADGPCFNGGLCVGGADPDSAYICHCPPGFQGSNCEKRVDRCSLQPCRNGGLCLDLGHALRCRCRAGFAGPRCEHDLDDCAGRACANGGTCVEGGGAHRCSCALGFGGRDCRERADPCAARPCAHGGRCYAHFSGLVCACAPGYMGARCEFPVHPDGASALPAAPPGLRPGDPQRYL

B1: DLL3-14-SG1 (antibody, human IgG1, kappa, V domains shown)
VH: QVQLVQSGAEVKKPGASVKVSCKASGYTFTNYYMHWVRQAPGLGLEWMGIINPSDGSTSYAQKFQGRVTMTRDTSTNTVYMDLSSLRSEDTAVYYCARGGNSAFYSYYDMDVWGQGTTVTVSS
VL: DVVMTQTPLSLPVTLGQPASISCRSSQSLVYRDGNTYLSWFQQRPGQSPRRLIYKVSNWQSGVPDRFSGGGSGTDFTLKISRVEAEDVGVYYCMQGTHWPPTFGQGTKVEIKR
notes: Variable regions of a previously reported anti-DLL3 antibody on SG1/SK1; Used as a second antibody only
B2: DL312-SG1 (antibody, human IgG1, kappa, V domains shown)
VH: EVKLVESGGGLVQPGGSLSLSCAASGFTFTDYYMNWVRQPPGKALEWLALIRNKANGYTTEYNASVKGRFTISRDNSQNILYLQMNALRAEDSATYYCARDSDGYYEYYFDYWGQGTTLTVSS
VL: DIQMTQSPSSLSASLGERVSLTCRASQEISDYLSWLQQKPDGTIKRLIFAASTLDSGVPKRFSGSRSGSDFSLSISSLESEDFADYYCLQYASYPYTFGSGTKLEIKR
notes: Variable regions of a previously reported anti-DLL3 antibody on SG1/SK1; Also used biotin-labelled as a first antibody
B3: D30841AE05-SG1 (antibody, human IgG1, kappa, V domains shown)
VH: QVQLKESGPALVKPTQTLTLTCTFSGFSLSSSYDMGWVRQAPGQGLEWMGTIYTGDYSTDYASWAKGRVTITADESTSTAYMELSSLRSEDTAVYYCARNTGYGYFGLWGQGTLVTVSS
VL: DIQLTQSPSFLSASVGDRVTITCQSTESVYGSDWLSWYQQKPGQPPKLLIYQASNLEIGVPSRFSGSGSGTDFTLTINSLEAEDAATYYCQGYYSGYIYAFGGGTKVEIKR
notes: Humanized variant of DLA0841 with SG1 heavy and SK1 light constant regions; Labelled with NHS-PEG4-Biotin when used as the first (immobilized) antibody in the Octet assay

Assays:
recombinant human DLL3 [1] = target: T1, recombinant human DLL3; assay: Octet binning on SA sensor; Antibody A (biotinylated, loaded first): DL301-SG1; then 20 nM human DLL3, then 80 nM Antibody B
Description: (§1) Octet (registered trademark) RED384 (Fortebio) was used to perform competitive binding assays by epitope binning for a panel of antibodies. A biotinylated antibody (DL301-SG1, DL306-SG1, DL309-SG1, DL312-SG1, D30316AE02-SG1, and D30841AE05-SG1) at 40 nM was first loaded to a streptavidin (SA) biosensor. Next, the sensor is exposed to 20 nM of human DLL3, followed by exposure to 80 nM of second antibody. The second antibodies are DL301-SG1, DL306-SG1, DL309-SG1, DL312-SG1, D30316AE02-SG1, D30841AE05-SG1, DLL3-14-SG1, DLL3-22-SG1, DLL3-4-SG1 and DLL3-6-SG1. Raw data was processed using ForteBio's Data Analysis Software 7.0 and the antibody pairs were assessed for competitive binding. Additional binding by the second antibody indicates an unoccupied epitope (non-competitor), while no binding indicates epitope blocking (competitor).
(§2) The competition ratio of antibody B to antibody A was calculated using the following equation: Competition Ratio (Antibody B to Antibody A)=[Binding Response (Antibody B-Antigen)]/[Binding Response (Antigen-Antibody A)]

recombinant human DLL3 [2] = target: T1, recombinant human DLL3; assay: Octet binning on SA sensor; Antibody A (biotinylated, loaded first): D30316AE02-SG1; then 20 nM human DLL3, then 80 nM Antibody B
Description: as §1, §2

recombinant human DLL3 [3] = target: T1, recombinant human DLL3; assay: Octet binning on SA sensor; Antibody A (biotinylated, loaded first): DL309-SG1; then 20 nM human DLL3, then 80 nM Antibody B
Description: as §1, §2

recombinant human DLL3 [4] = target: T1, recombinant human DLL3; assay: Octet binning on SA sensor; Antibody A (biotinylated, loaded first): D30841AE05-SG1; then 20 nM human DLL3, then 80 nM Antibody B
Description: as §1, §2

recombinant human DLL3 [5] = target: T1, recombinant human DLL3; assay: Octet binning on SA sensor; Antibody A (biotinylated, loaded first): DL306-SG1; then 20 nM human DLL3, then 80 nM Antibody B
Description: as §1, §2

recombinant human DLL3 [6] = target: T1, recombinant human DLL3; assay: Octet binning on SA sensor; Antibody A (biotinylated, loaded first): DL312-SG1; then 20 nM human DLL3, then 80 nM Antibody B
Description: as §1, §2

Row | Binder | competition ratio (Antibody B to Antibody A) (recombinant human DLL3 [1]) | competition ratio (Antibody B to Antibody A) (recombinant human DLL3 [2]) | competition ratio (Antibody B to Antibody A) (recombinant human DLL3 [3]) | competition ratio (Antibody B to Antibody A) (recombinant human DLL3 [4]) | competition ratio (Antibody B to Antibody A) (recombinant human DLL3 [5]) | competition ratio (Antibody B to Antibody A) (recombinant human DLL3 [6])
1 | B1 | 1.2 | 1.4 | 1 | 1.4 | 1.4 | 1.5
2 | B2 | 1 | 1.4 | 1.1 | 1.4 | 1.4 | 0.2
3 | B3 | 0.9 | 1.3 | 0.8 | 0 | -0.1 | 1.1
